# Assays:
# Details in all cases: source organism: Lyssavirus rabies
# HLA-B*53:01 = experiment: IEDB peptide-MHC binding, purified MHC/competitive/fluorescence; filed as Kd, often an IC50 or EC50 that approximates it; ≥ and ≤ were set here for values at or beyond the usual limits of such assays
# HLA-A*30:02 = experiment: as above
# HLA-A*30:01 = experiment: as above
# HLA-B*07:02 = experiment: as above
# HLA-A*66:01 = experiment: as above
# HLA-B*27:05 = experiment: as above
# HLA-A*11:01 = experiment: as above
# HLA-A*01:01 = experiment: as above
# HLA-B*40:01 = experiment: as above
# HLA-B*14:02 = experiment: as above
# HLA-B*44:02 = experiment: as above
# HLA-B*08:01 = experiment: as above
# HLA-B*58:01 = experiment: as above
# HLA-A*02:19 = experiment: IEDB peptide-MHC binding, purified MHC/direct/fluorescence; filed as Kd, often an IC50 or EC50 that approximates it; ≥ and ≤ were set here for values at or beyond the usual limits of such assays
# HLA-A*24:03 = experiment: as above
# HLA-B*15:01 = experiment: as above
# HLA-A*29:02 = experiment: as above
# HLA-A*02:06 = experiment: as above
# HLA-B*46:01 = experiment: as above
# HLA-A*26:01 = experiment: as above
# HLA-A*69:01 = experiment: as above
# HLA-A*02:12 = experiment: as above
# HLA-B*57:01 = experiment: as above
# HLA-A*02:03 = experiment: as above
# HLA-B*27:03 = experiment: as above
sequence,measurement,setting,value
YLDNVGVHI,Kd,HLA-B*53:01,≥ 5 µM
same,Kd,HLA-A*30:02,≥ 5 µM
same,Kd,HLA-A*30:01,≥ 5 µM
same,Kd,HLA-B*07:02,≥ 5 µM
same,Kd,HLA-A*66:01,≥ 5 µM
same,Kd,HLA-B*27:05,≥ 5 µM
same,Kd,HLA-A*11:01,≥ 5 µM
same,Kd,HLA-A*01:01,≥ 5 µM
same,Kd,HLA-B*40:01,≥ 5 µM
same,Kd,HLA-B*14:02,≥ 5 µM
same,Kd,HLA-B*44:02,≥ 5 µM
same,Kd,HLA-B*08:01,≥ 5 µM
same,Kd,HLA-B*58:01,≥ 5 µM
same,Kd,HLA-A*02:19,≥ 20 µM
same,Kd,HLA-A*24:03,≥ 20 µM
same,Kd,HLA-B*15:01,≥ 20 µM
same,Kd,HLA-A*29:02,≥ 20 µM
same,Kd,HLA-A*02:06,0.036 µM
same,Kd,HLA-B*46:01,≥ 20 µM
same,Kd,HLA-A*26:01,≥ 20 µM
same,Kd,HLA-A*69:01,≥ 20 µM
same,Kd,HLA-A*02:12,0.007 µM
same,Kd,HLA-B*57:01,≥ 20 µM
same,Kd,HLA-A*02:03,≥ 20 µM
same,Kd,HLA-B*27:03,≥ 20 µM
